# ± gives the standard deviation of the averaged measurements.
# Experiment: total protein half-life in vivo (active degradation + dilution); higher = more stable protein
# [1] = E. coli NCM3722 delta-clpP delta-lon delta-hslV, growth: N-lim chemostat, doubling time 6 h
# [2] = E. coli NCM3722 delta-clpP, growth: N-lim chemostat, doubling time 6 h
# [3] = E. coli NCM3722 delta-hslV, growth: N-lim chemostat, doubling time 6 h
# [4] = E. coli NCM3722 delta-lon, growth: N-lim chemostat, doubling time 6 h
# [5] = E. coli NCM3722 delta-smpB, growth: N-lim chemostat, doubling time 6 h
# [6] = wild type E. coli NCM3722, growth: C-lim chemostat, doubling time 3 h
# [7] = wild type E. coli NCM3722, growth: C-lim chemostat, doubling time 6 h
# [8] = wild type E. coli NCM3722, growth: C-lim chemostat, doubling time 12 h
# [9] = wild type E. coli NCM3722, growth: N-lim chemostat, doubling time 6 h
# [10] = wild type E. coli NCM3722, growth: N-lim chemostat, doubling time 12 h
# [11] = wild type E. coli NCM3722, growth: P-lim chemostat, doubling time 6 h
# [12] = wild type E. coli NCM3722, growth: P-lim chemostat, doubling time 12 h
Sequence,total protein half-life in vivo [1] [h],total protein half-life in vivo [2] [h],total protein half-life in vivo [3] [h],total protein half-life in vivo [4] [h],total protein half-life in vivo [5] [h],total protein half-life in vivo [6] [h],total protein half-life in vivo [7] [h],total protein half-life in vivo [8] [h],total protein half-life in vivo [9] [h],total protein half-life in vivo [10] [h],total protein half-life in vivo [11] [h],total protein half-life in vivo [12] [h]
MHDANIRVAIAGAGGRMGRQLIQAALALEGVQLGAALEREGSSLLGSDAGELAGAGKTGVTVQSSLDAVKDDFDVFIDFTRPEGTLNHLAFCRQHGKGMVIGTTGFDEAGKQAIRDAAADIAIVFAANFSVGVNVMLKLLEKAAKVMGDYTDIEIIEAHHRHKVDAPSGTALAMGEAIAHALDKDLKDCAVYSREGHTGERVPGTIGFATVRAGDIVGEHTAMFADIGERLEITHKASSRMTFANGAVRSALWLSGKESGLFDMRDVLDLNNL,5.49 ± 0.1,4.89 ± 0.007,5.04 ± 0.21,5.38 ± 0.62,4.76 ± 0.23,2.91 ± 0.068,6.1 ± 0.19,12 ± 0.68,5.092 ± 0.023,9.28 ± 0.75,5.71 ± 0.34,12.5 ± 1.2
MHELSLCQSAVEIIQRQAEQHDVKRVTAVWLEIGALSCVEESAVRFSFEIVCHGTVAQGCDLHIVYKPAQAWCWDCSQVVEIHQHDAQCPLCHGERLRVDTGDSLIVKSIEVE [P0A703],4.94 ± 1.4,3.51,,3.49 ± 0.32,3.57,,,9.8,3.97 ± 0.6,5.27 ± 1.4,3.77,8.0989 ± 0.006
MHFLRRPISLRQRLILTIGAILLVFELISVFWLWHESTEQIQLFEQALRDNRNNDRHIMREIREAVASLIVPGVFMVSLTLFICYQAVRRITRPLAELQKELEARTADNLTPIAIHSATLEIEAVVSALNDLVSRLTSTLDNERLFTADVAHELRTPLAGVRLHLELLAKTHHIDVAPLVARLDQMMESVSQLLQLARAGQSFSSGNYQHVKLLEDVILPSYDELSTMLDQRQQTLLLPESAADITVQGDATLLRMLLRNLVENAHRYSPQGSNIMIKLQEDDGAVMAVEDEGPGIDESKCGELSKAFVRMDSRYGGIGLGLSIVSRITQLHHGQFFLQNRQETSGTRAWVRLKKDQYVANQI,5.995 ± 0.044,,4.89 ± 1.3,6.2 ± 1.3,5.5 ± 0.35,3.17 ± 0.22,5.99 ± 0.74,11.5 ± 0.59,5.9 ± 0.18,12.7 ± 0.62,6.25 ± 0.75,11.1 ± 1.5
MHITLRQLEVFAEVLKSGSTTQASVMLALSQSAVSAALTDLEGQLGVQLFDRVGKRLVVNEHGRLLYPRALALLEQAVEIEQLFREDNGAIRIYASSTIGNYILPAVIARYRHDYPQLPIELSVGNSQDVMQAVLDFRVDIGFIEGPCHSTEIISEPWLEDELVVFAAPTSPLARGPVTLEQLAAAPWILRERGSGTREIVDYLLLSHLPKFEMAMELGNSEAIKHAVRHGLGISCLSRRVIEDQLQAGTLSEVAVPLPRLMRTLWRIHHRQKHLSNALRRFLDYCDPANVPR [P0ACR4],5.84 ± 0.54,7.58,5.48,5.76 ± 0.15,6.21,2.32,5.78 ± 0.65,13,4.98 ± 0.021,9.4289 ± 0.0056,5.59 ± 0.33,10.5 ± 1.9
MHNQAPIQRRKSTRIYVGNVPIGDGAPIAVQSMTNTRTTDVEATVNQIKALERVGADIVRVSVPTMDAAEAFKLIKQQVNVPLVADIHFDYRIALKVAEYGVDCLRINPGNIGNEERIRMVVDCARDKNIPIRIGVNAGSLEKDLQEKYGEPTPQALLESAMRHVDHLDRLNFDQFKVSVKASDVFLAVESYRLLAKQIDQPLHLGITEAGGARSGAVKSAIGLGLLLSEGIGDTLRVSLAADPVEEIKVGFDILKSLRIRSRGINFIACPTCSRQEFDVIGTVNALEQRLEDIITPMDVSIIGCVVNGPGEALVSTLGVTGGNKKSGLYEDGVRKDRLDNNDMIDQLEARIRAKASQLDEARRIDVQQVEK,4.85 ± 0.2,2.41 ± 0.11,3.23 ± 0.18,3.18 ± 0.078,2.88 ± 0.19,2.61 ± 0.25,4.69 ± 0.24,7.78 ± 0.65,3.05 ± 0.092,4.29 ± 0.3,4.01 ± 0.28,7.02 ± 0.51
MHRQSFFLVPLICLSSALWAAPATVNVEVLQDKLDHPWALAFLPDNHGMLITLRGGELRHWQAGKGLSAPLSGVPDVWAHGQGGLLDVVLAPDFAQSRRIWLSYSEVGDDGKAGTAVGYGRLSDDLSKVTDFRTVFRQMPKLSTGNHFGGRLVFDGKGYLFIALGENNQRPTAQDLDKLQGKLVRLTDQGEIPDDNPFIKESGARAEIWSYGIRNPQGMAMNPWSNALWLNEHGPRGGDEINIPQKGKNYGWPLATWGINYSGFKIPEAKGEIVAGTEQPVFYWKDSPAVSGMAFYNSDKFPQWQQKLFIGALKDKDVIVMSVNGDKVTEDGRILTDRGQRIRDVRTGPDGYLYVLTDESSGELLKVSPRN,1.95 ± 0.037,2.22 ± 1.1,1.44 ± 0.036,,1.43 ± 0.033,1.63 ± 0.43,4.09,5.83 ± 1.6,2.13,,,6.77
MHSERAPFFLKLAAWGGVVFLHFPILIIAAYAFNTEDAAFSFPPQGLTLRWFSVAAQRSDILDAVTLSLKVAALATLIALVLGTLAAAALWRRDFFGKNAISLLLLLPIALPGIVTGLALLTAFKTINLEPGFFTIVVGHATFCVVVVFNNVIARFRRTSWSLVEASMDLGANGWQTFRYVVLPNLSSALLAGGMLAFALSFDEIIVTTFTAGHERTLPLWLLNQLGRPRDVPVTNVVALLVMLVTTLPILGAWWLTREGDNGQ [P0AFR9],6.7,,,,,,,,,,,
MHSQIWVVSTLLISIVLIVLTIVKFKFHPFLALLLASFFVGTMMGMGPLDMVNAIESGIGGTLGFLAAVIGLGTILGKMMEVSGAAERIGLTLQRCRWLSVDVIMVLVGLICGITLFVEVGVVLLIPLAFSIAKKTNTSLLKLAIPLCTALMAVHCVVPPHPAALYVANKLGADIGSVIVYGLLVGLMASLIGGPLFLKFLGQRLPFKPVPTEFADLKVRDEKTLPSLGATLFTILLPIALMLVKTIAELNMARESGLYILVEFIGNPITAMFIAVFVAYYVLGIRQHMSMGTMLTHTENGFGSIANILLIIGAGGAFNAILKSSSLADTLAVILSNMHMHPILLAWLVALILHAAVGSATVAMMGATAIVAPMLPLYPDISPEIIAIAIGSGAIGCTIVTDSLFWLVKQYCGATLNETFKYYTTATFIASVVALAGTFLLSFII,,,,,4.91,,5.8,11.9,,9.38,,
MHVTAKPSSFQCNLKCDYCFYLEKESQFTHEKWMDDSTLKEFIKQYIAASGNQVYFTWQGGEPTLAGLDFFRKVIHYQQRYAGQKRIFNALQTNGILLNNEWCAFLKEHEFLVGISIDGPQELHDRYRRSNSGNGTFAKVIAAIERLKSYQVEFNTLTVINNVNVHYPLEVYHFLKSIGSKHMQFIELLETGTPNIDFSGHSENTFRIIDFSVPPTAYGKFMSTIFMQWVKNDVGEIFIRQFESFVSRFLGNGHTSCIFQESCKDNLVVESNGDIYECDHFVYPQYKIGNINKSELKTMNSVQLTAQKKRIPAKCQQCAYKPICNGGCPKHRITKVNNETVSYFCEGYKILFSTMVPYMNAMVELAKNRVPLYHIMDVAKQMENN,,,,,,1.12 ± 0.083,1.77 ± 0.19,2.03,,,,
